The assay addresses Akt1 kinase domain (Akt1^KD) (human, UniProt P31749 144-472, exclusively monophosphorylated, predominantly in the turn motif (T450)). Description: fluorescence polarisation.

In publication PMC5924885 (Proceedings of the National Academy of Sciences of the …, 2018) one finds Kd data, which are given here for one molecule.

As a reminder, the Kd is the concentration at which binding is half-saturated. The low end stands for tighter binding, the high end for weaker binding.

Sequence of Akt1 kinase domain (Akt1^KD) (P31749 144-472): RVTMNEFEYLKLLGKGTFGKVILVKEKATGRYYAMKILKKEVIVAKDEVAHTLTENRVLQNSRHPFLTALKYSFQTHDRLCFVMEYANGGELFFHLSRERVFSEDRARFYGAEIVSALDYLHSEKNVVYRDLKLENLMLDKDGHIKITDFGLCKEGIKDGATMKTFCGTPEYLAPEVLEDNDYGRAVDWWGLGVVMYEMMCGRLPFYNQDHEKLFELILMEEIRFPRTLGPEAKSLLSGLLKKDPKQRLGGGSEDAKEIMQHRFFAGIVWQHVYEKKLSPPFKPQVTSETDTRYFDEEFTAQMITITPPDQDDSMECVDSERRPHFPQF

B1: Atto488-labeled Akt1 PH domain (Akt1^1-120 T101C) (domain or fragment, human, UniProt P31749 1-120, looked up)
chain: MSDVAIVKEGWLHKRGEYIKTWRPRYFLLKNDGTFIGYKERPQDVDQREAPLNNFSVAQCQLMKTERPRPNTFIIRCLQWTTVIERTFHVETPEEREEWTCAIQTVADGLKKQEEEEMDF
modifications: Atto488 (maleimide) label, about 50% labeling efficiency
Molecule B1 displayed a Kd of 7 µM.
